Test results: patent US20210269549A1, “ANTI-SAS1B ANTIBODIES, ASSOCIATED METHODS OF USE, AND COMPOSITIONS AND METHODS FOR DETECTING AND TREATING CANCER” (UNIVERSITY OF VIRGINIA PATENT FOUNDATION, priority 2015, published 2021)
Substitutions are numbered along the chain they refer to. Blank lines part the entries; values can stand above or below the molecule they belong to.

Experiments:
human SAS1B = biological target: T1, human SAS1B (Homo sapiens, UniProt Q6HA08); assay: Western blot of human SAS1B probed with anti-human SAS1B murine mAbs; format: binding; details: for Specifically binds human SAS1B (and not mouse SAS1B): Table 1
T1 construct: made in house; host or cells: E. coli
T1 sequence (Q6HA08 24-431): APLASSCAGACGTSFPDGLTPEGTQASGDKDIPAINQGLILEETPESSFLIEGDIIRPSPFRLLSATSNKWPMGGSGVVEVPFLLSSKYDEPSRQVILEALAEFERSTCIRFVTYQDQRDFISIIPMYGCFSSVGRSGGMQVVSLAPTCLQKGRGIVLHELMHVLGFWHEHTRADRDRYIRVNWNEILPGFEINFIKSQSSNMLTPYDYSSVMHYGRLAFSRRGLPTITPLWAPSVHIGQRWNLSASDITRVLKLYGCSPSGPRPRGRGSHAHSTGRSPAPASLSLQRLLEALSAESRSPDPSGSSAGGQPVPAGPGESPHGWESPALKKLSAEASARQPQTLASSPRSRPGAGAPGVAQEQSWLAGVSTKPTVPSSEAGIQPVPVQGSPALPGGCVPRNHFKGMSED
From the text: A western blot of human SAS1B and mouse SAS1B was probed with anti-human SAS1B murine monoclonal antibodies SB1, SB2, SB3, SB4, SB5, SB6, and SB7.

[1] = tested on: renal cell carcinoma cell line (M1); assay: Morphology of renal cell carcinoma cell line (M1) after 93 h of antibody drug treatment; format: cell-based; details: 1 nM mAb with 15 nM Fab-DMDM
Protocol: The morphology of renal cell carcinoma cell line (M1) after 93 h of anti-EGFR antibody drug treatment was examined.

[2] = tested on: human uterine cancer cells (MMMT539); assay: Antibody drug conjugate cytotoxicity (ADC) assay, MMMT539; format: cell-based; details: 0.1 nM mAb, Fab-DMDM constant at 15 nM, ~90 h
Protocol: The cytotoxic effect of anti-human SAS1B mAbs SB2 and SB5 on human uterine cancer cells (MMMT539) was examined by antibody drug conjugate cytotoxicity (ADC) assay. Human uterine cancer cells MMMT539 were seeded in triplicate on 96 well plate overnight and then treated with SB2 or SB5 and anti-mouse Fab-cleavable-Duocarmycin complex for ˜90 h. The presence of viable live cells per well was measured by total cellular ATP content in relative luminescence unit (RLU). Viability of control live cells (100%) was determined from average of 9 wells in terms of total cellular ATP (in RLU) containing the constant 15 nM Fab-CL-DMDM for each set of antibody/reagent. […] Staurosporine, a general protein kinase inhibitor, was used to induce apoptosis in 1% DMSO as a positive control for the assay.

[3] = tested on: human pancreatic cancer cell MPanc96; assay: ADC cytotoxicity assay (total cellular ATP), MPanc96; format: cell-based; details: 0.1 nM mAb, Fab-DMDM constant at 15 nM, ~72 hours
Protocol: The cytotoxic effect of anti-human SAS1B mAbs SB2, SB4, SB5 on human pancreatic cancer cell MPanc96 was determined by ADC assay. Human pancreatic cancer cells MPanc96 were seeded in triplicate on 96 well plates (1100 cells per well) overnight and then treated with SB2, SB4, SB5, and […] (anti-CABYR) and anti-mouse Fab-cleavable-Duocarmycin complex for ˜72 hours. The presence of viable live cells per well was measured by total cellular ATP content in relative luminescence unit (RLU). […] The anti-SAS1B mAbs SB2, SB4, and SB5 killed 80%, 64%, 57% of cells, respectively, at 1 nM concentration when Fab-DMDM was kept constant at 15 nM for all primary antibody dilutions. SB2 killed 67% of cells at 0.1 nM concentration. […] Staurosporine, a general protein kinase inhibitor, which induces apoptosis, was used as a positive control and DMSO was used as a negative control. The data are shown in FIG. 7A-B and represent an average of triplicate experiments.

[4] = tested on: uterine cancer cell line (MMMT539); assay: Morphology of uterine cancer cells after 93 h of anti-SAS1B antibody drug treatment; format: cell-based, human; details: 0.1 nM mAb with 15 nM Fab-DMDM
Protocol: The morphology of uterine cancer cell line (SNU539) and uterine cancer cell line (MMMT539) after 93 h of anti-SAS1B antibody drug treatment were examined.

[5] = biological target: T2, recombinant human SAS1B antigen (Homo sapiens, UniProt Q6HA08); assay: Capture assay by sandwich ELISA; format: binding; details: SB2 coupled to magnetic beads, SB5 coupled to HRP as detection agent, 96 well ELISA format
T2 sequence (Q6HA08 24-431): T1 sequence (Q6HA08 24-431)
From the text: The antibodies were used to develop a capture assay by sandwich ELISA. The support was a magnetic bead (MB) coupled to SB2, SB3, SB4, or SB5 mAbs. The antigen was a recombinant human SAS1B antigen. Detection was accomplished with mAbs SB2, SB3, SB4, SB5 conjugated with HRP. A HRP substrate was used and TMB was used for quantitation.
The retention of HRP activity after conjugations to SASB1 SB2, SB3, SB4, SB5, and anti-CABYR monoclonal antibody 3A4 was examined. The assay method detected 0.2 femtomole of IgGs. Where SB2 is coupled to magnetic beads and SB5 coupled to HRP is used as a detection agent in a 96 well ELISA format 2.7 pmole/ml of rhSAS1B can be detected.

[6] = tested on: MPanc96 cells (pancreatic ductal adenocarcinoma cell line); assay: Live indirect immunofluorescence cell surface staining, MPanc96; format: cell-based, human; details: for Cells staining for cell surface SAS1B: MPanc96, primary antibody 20 ug/mL; for Immunoreaction with cell surface localized SAS1B: live MPanc96, primary antibodies 20 ug/mL
Protocol: (§1) Live MPanc96 cells (pancreatic ductal adenocarcinoma cell line) were incubated with different anti-SAS1B monoclonal antibodies (as well as DAPI stain) for nucleus localization. Cells were fixed and permeabilized after primary and secondary antibody incubation thus fluorescence staining observed represents surface localized SAS1B. Monoclonal antibodies SB4 and SB5 were used, as well as normal rabbit or mouse IgG's as a negative control. All primary antibodies were used at a concentration of 20 ug/mL.
(§2) The live indirect immunofluorescence protocol is as follows. The cells were dissociated with Acutase and plated on fibronectin coated coverslips. MPanc96 cells were allowed to grow 2-3 days and 366 cells were allowed to grow for 3-4 days. The cells were blocked (blocking 1 solution) with 5% NGS in media for 30 min at RT and then blocked with 5% NGS in chilled media+0.1% sodium azide (blocking 2 solution) for 30 min on ice. The primary antibody (SB4, SB5 or control) was added at 20 ug/mL in blocking 2 solution for 2 hours on ice at 4° C. The cells were washed 3× for 5 minutes each on ice. The secondary antibody (goat anti-Ms/Rb Alexa488 (1:500)) was added in blocking 2 solution for 1 hour in dark on ice at 4° C. The cells were washed 3× for 5 min each on ice and then were fixed with 4% PFA-PBS for 15 min in the dark at RT. The cells were washed 2× for 5 min each at RT and then stained with DAPI stain (1:1000) for 10 min at RT. The cells were washed 2× for 5 min each at RT and then were treated with prolong gold antifade. […] About 10-20% of the SB5 treated cells stained for SASB1.

[7] = tested on: PDAC cell line known as 366; assay: Live indirect immunofluorescence cell surface staining, 366; format: cell-based, human; details: for Cells staining for cell surface SAS1B: 366, primary antibody 20 ug/mL; for Recognition of cell surface SAS1B: live 366 cells, primary antibodies 20 ug/mL
Protocol: as §1, §2

Reactivity on western blot of human SAS1B and mouse SAS1B (human SAS1B): specific to the human SAS1B only | Specificity in western blot for human SAS1B antigen in an E. coli protein background (human SAS1B): demonstrated specificity | Specifically binds human SAS1B (and not mouse SAS1B) (human SAS1B): Yes
B2: SB3: mouse anti-human SAS1B monoclonal antibody, IgG2b; VH SEQ ID NO:14, VL SEQ ID NO:15 (antibody, listed as Mus musculus, V domains shown)
VH: EVQLQQSGPELVKPGSSVKISCKASGYTFTDYNMVWVKQSHGKSLEWIGAVNPNNGGTSYNQKFKGKATLTVDKSSSTAYMELRSLTSEDSAVYYCVPNWDWFAYWGQGTLVTVSA
VL: DVLMTQTPLSLPVSLGDQASISCRSSQSLVHSNGNTYLEWYLQKPGQSPNLLIYKVSNRFSGVPDRFSGSGSGTDFTLKISRVEAEDLGVYYCFQGSHVPFTFGSGTKLEIK

Reactivity on western blot of human SAS1B and mouse SAS1B (human SAS1B): specific to the human SAS1B only | Specificity in western blot for human SAS1B antigen in an E. coli protein background (human SAS1B): demonstrated specificity | Specifically binds human SAS1B (and not mouse SAS1B) (human SAS1B): Yes
B3: SB4: mouse anti-human SAS1B monoclonal antibody, IgG2a; VH SEQ ID NO:16, VL SEQ ID NO:17 (antibody, listed as Mus musculus, V domains shown)
VH: B2 VH with A24P, V37M, V51I, S59T, V97A
VL: B2 VL with L29I, V30L, N50K
Cells staining for cell surface SAS1B [6]: 65-80% | Immunoreaction with cell surface localized SAS1B [6]: immunoreact with cell surface localized SAS1B | Cells staining for cell surface SAS1B [7]: 65-80% | Recognition of cell surface SAS1B [7]: recognize cell surface SAS1B in pancreatic cancer cell lines

Reactivity on western blot of human SAS1B and mouse SAS1B (human SAS1B): specific to the human SAS1B only | Specificity in western blot for human SAS1B antigen in an E. coli protein background (human SAS1B): demonstrated specificity | Specifically binds human SAS1B (and not mouse SAS1B) (human SAS1B): Yes | rhSAS1B that can be detected [5]: 2.7 pmol/mL
B4: SB5: mouse anti-human SAS1B monoclonal antibody, IgG2b; VH SEQ ID NO:16, VL SEQ ID NO:18 (antibody, listed as Mus musculus, V domains shown)
VH: B2 VH with A24P, V37M, V51I, S59T, V97A
VL: B2 VL with T7I, L29I, V30L, N50K
Cells staining for cell surface SAS1B [6]: 10-20% | Immunoreaction with cell surface localized SAS1B [6]: immunoreact with cell surface localized SAS1B | Cell killing and inhibition of cell proliferation (morphology) [1]: clear cell killing and inhibition of cell proliferation properties | Cancer cells killed [2]: 75% | Cell killing and inhibition of cell proliferation (morphology) [4]: clear cell killing and inhibition of cell proliferation | Cells staining for cell surface SAS1B [7]: 10-20% | Recognition of cell surface SAS1B [7]: recognize cell surface SAS1B in pancreatic cancer cell lines

The next lines start with the molecule.

B1: SB2: mouse anti-human SAS1B monoclonal antibody, IgG2b; VH SEQ ID NO:14, VL SEQ ID NO:15 (antibody, listed as Mus musculus, V domains shown)
VH: B2 VH
VL: B2 VL
Reactivity on western blot of human SAS1B and mouse SAS1B (human SAS1B): specific to the human SAS1B only | Specificity in western blot for human SAS1B antigen in an E. coli protein background (human SAS1B): demonstrated specificity | Specifically binds human SAS1B (and not mouse SAS1B) (human SAS1B): Yes | Cell killing and inhibition of cell proliferation (morphology) [1]: a large number of rounded dead cells | Cancer cells killed [2]: 87% | Cells killed [3]: 67% | Cell killing and inhibition of cell proliferation (morphology) [4]: clear cell killing and inhibition of cell proliferation | rhSAS1B that can be detected [5]: 2.7 pmol/mL

B5: SB1: mouse anti-SAS1B monoclonal antibody, IgG2a; VH SEQ ID NO:12, VL SEQ ID NO:13 (antibody, listed as Mus musculus, V domains shown)
VH: EVQLQQSGPELVKPGSSVKISCKASGYTFTDYNMDWVKQSHGKSLEWIGAINPNNGGTSYNQKFKGKATLTVDKSSSTAYMELRSLTSEDSAVYYCATNEYWGQGTTLTVSS
VL: NIVMTQSPKSMSMSVGERVTLSCKASENVGTYVSWYQQKPEQSPKLLIYGASNRYTGVPDRFTGSGSATDFTLTISSVQAEDLADYHCGQSYSYPWTFGGGTKLEIK
Reactivity on western blot of human SAS1B and mouse SAS1B (human SAS1B): reacts with both human and mouse SAS1B | Specificity in western blot for human SAS1B antigen in an E. coli protein background (human SAS1B): demonstrated specificity
